Each block holds one sequence with its values, some of them ahead of it.
Assays:
[1] = target: HLA-A*30:01; experiment: IEDB peptide-MHC binding, purified MHC/competitive/radioactivity; filed as Kd, often an IC50 or EC50 that approximates it; ≥ and ≤ were set here for values at or beyond the usual limits of such assays
[2] = target: HLA-A*02:01; experiment: IEDB peptide-MHC binding, purified MHC/competitive/fluorescence; ≥ and ≤ were set here for values at or beyond the usual limits of such assays
[3] = target: HLA-B*15:01; experiment: IEDB peptide-MHC binding, purified MHC/direct/fluorescence; filed as Kd, often an IC50 or EC50 that approximates it; ≥ and ≤ were set here for values at or beyond the usual limits of such assays; details: source organism: Mycobacterium tuberculosis F11
[4] = target: HLA-B*07:02; experiment: IEDB peptide-MHC binding, purified MHC/competitive/radioactivity; filed as Kd, often an IC50 or EC50 that approximates it; ≥ and ≤ were set here for values at or beyond the usual limits of such assays
[5] = target: HLA-A*01:01; experiment: IEDB peptide-MHC binding, purified MHC/direct/fluorescence; filed as Kd, often an IC50 or EC50 that approximates it; ≥ and ≤ were set here for values at or beyond the usual limits of such assays; details: source organism: Homo sapiens
[6] = target: HLA-A*03:01; experiment: as above
[7] = target: HLA-A*11:01; experiment: as above; details: source organism: Homo sapiens
[8] = target: HLA-A*69:01; experiment: as above
[9] = target: HLA-A*02:01; experiment: as above
[10] = target: HLA-A*26:01; experiment: IEDB peptide-MHC binding, purified MHC/competitive/radioactivity; filed as Kd, often an IC50 or EC50 that approximates it; ≥ and ≤ were set here for values at or beyond the usual limits of such assays
[11] = target: HLA-A*01:01; experiment: as above
[12] = target: HLA-B*51:01; experiment: as above
[13] = target: HLA-B*53:01; experiment: as above
[14] = target: HLA-B*35:01; experiment: as above
[15] = target: HLA-B*07:02; experiment: IEDB peptide-MHC binding, purified MHC/direct/fluorescence; filed as Kd, often an IC50 or EC50 that approximates it; ≥ and ≤ were set here for values at or beyond the usual limits of such assays; details: source organism: Mycobacterium tuberculosis str. Haarlem
[16] = source organism: Dengue virus 2 Jamaica/1409/1983
[17] = source organism: Dengue virus 3 Martinique/1243/1999
[18] = source organism: Vaccinia virus Copenhagen
[19] = source organism: Brucella abortus 2308
[20] = source organism: Dengue virus 1 Brazil/97-11/1997
[21] = source organism: Dengue virus 4 Philippines/H241/1956
[22] = source organism: Bacillus cereus
[23] = source organism: Zaire ebolavirus

Sequence: AAMYQYIFL
Kd ([1]; source organism: Vaccinia virus WR): 7.53 nM

Sequence: AFIHIPGDT
IC50 ([2]; source organism: Variola virus): 24800 nM

Sequence: ALSTGAGAY
Kd [3]: 436 nM

Sequence: AVSRGSAKLR
Kd [1, 16]: 1210 nM

Sequence: CIDILRSLE
IC50 ([2]; source organism: Vaccinia virus): 51000 nM

Sequence: CPTQGEAVL
Kd [4, 17]: 53.7 nM

Kd [5]: 423 nM | Kd ([6]; source organism: Homo sapiens): 11000 nM | Kd [7]: 138 nM
Sequence: CSDDGFWSK

Sequence: CSSISIKLT
IC50 [2, 18]: ≥ 729000 nM

Kd ([8]; source organism: Haemophilus influenzae): 352 nM
Sequence: DLNKVIQFL

Sequence: DLSLGNQEL
Kd [9, 19]: ≥ 10000 nM | Kd [8, 19]: ≥ 20000 nM

Sequence: DSLSSQMTS
IC50 [2, 18]: ≥ 240000 nM

Sequence: DTVTYKCPL
Kd ([10]; source organism: Dengue virus 4 Dominica/814669/1981): 1260 nM

Sequence: EFLDYMPSM
Kd [10, 17]: 16200 nM

Sequence: ESALNDTWKI
Kd ([10]; source organism: Dengue virus 2 Peru/IQT2913/1996): ≥ 69700 nM

Sequence: ETLGEKWKRQ
Kd [10, 20]: 12300 nM

Sequence: EYVDYMPVM
Kd [10, 21]: ≥ 21300 nM

Kd ([11]; source organism: Homo sapiens): 198 nM
Sequence: FLGGNEVGKTY

Sequence: FLPKAAYAL
Kd ([9]; source organism: Mammarenavirus juninense): 2.8 nM

Sequence: FPQSNAPIMD
Kd [12, 16]: 4160 nM | Kd [13, 16]: 113 nM

Sequence: FPQSNSPIED
Kd [14, 21]: 630 nM | Kd [12, 21]: ≥ 37500 nM | Kd [13, 21]: 1830 nM

Sequence: FPYSIPATL
Kd [14, 17]: 1.99 nM | Kd [12, 17]: 89 nM | Kd [13, 17]: 2.15 nM

Sequence: FTTNIWLKL
Kd [11, 16]: 1330 nM

Sequence: GIYCTVPFI
Kd [9, 22]: 111 nM | Kd [8, 22]: 388 nM

Kd ([9]; source organism: Homo sapiens): 5660 nM
Sequence: GLRAIKSVL

Sequence: GMNAPDDLV
IC50 [2, 23]: 6300 nM

Sequence: GPRQWRWPL
Kd [15]: 14.2 nM

Sequence: GTHPTTTYK
Kd ([6]; source organism: Mycobacterium tuberculosis variant bovis): 780 nM

Sequence: GTTFAEGVV
IC50 [2, 23]: 31100 nM

Sequence: HTIENSTAN
Kd [10, 17]: 6990 nM

Sequence: IPERSWNSGY
Kd [14, 20]: 155 nM

Sequence: IPKIYGGPIS
Kd ([4]; source organism: Dengue virus 1 Singapore/S275/1990): 508 nM

Source: the Immune Epitope Database (IEDB)
